Substitutions are numbered along the chain they refer to. Names may count otherwise.

Test [1] deals with T1, mouse FLT3 expressed on CHO-S cells (mouse, UniProt Q00342 28-1000).
T1 construct: whole, on cells
Put plainly: flow cytometry (iQue Screener PLUS) on CHO-S cells transiently expressing mouse FLT3; AF647 anti-human IgG (H+L) secondary; GeoMean RL1-H. A general note: A flow cytometer gives signals particle by particle.
Description: (§1) The anti-FLT3 antibodies were incubated with the hamster CHO-S cell line transiently expressing human, cynomolgus or mouse FLT3 for 30 minutes at 4° C. The cells were washed twice and subsequently incubated for an additional 20 minutes with AF647-conjugated secondary anti-human IgG (H+L) antibody. After the washing step, antibody binding was detected using the high-throughput flow cytometer iQue Screener PLUS (Sartorius) measuring the GeoMean of AF647 signal in each well. Every concentration was assayed in triplicate and a 12-point titration curve was generated for each antibody.

Test [2] deals with T2, human FLT3 expressed on cells (human, UniProt P36888 27-993).
T2 construct: endogenous on EOL-1 cells and primary CD34+ stem cells in the functional rows; also called CD135
Put plainly: flow cytometry (iQue Screener PLUS) on CHO-S cells transiently expressing human FLT3; AF647 anti-human IgG (H+L) secondary; GeoMean RL1-H; 12-point titration.
Description: as §1

In test [3] the target is T3, cynomolgus FLT3 expressed on CHO-S cells (cynomolgus, UniProt A0A2K5VQ48 27-993).
T3 construct: whole, on cells
Put plainly: flow cytometry (iQue Screener PLUS) on CHO-S cells transiently expressing cynomolgus FLT3; AF647 anti-human IgG (H+L) secondary; GeoMean RL1-H; 12-point titration.
Description: as §1

Test [4] has as its target T4, recombinant human FLT3 ECD his-tagged fusion receptor (Sino Biological) (human, UniProt P36888 27-543).
T4 construct: Bought protein; also called FLT3-his; His-tagged FLT3; not shown: His tag
Put plainly: bio-layer interferometry (Octet QK384); FLT3-his immobilized on anti-penta-HIS (HIS1K) biosensor; 500 nM antibody, 600 s association.

The target in test [5] is T1, mouse FLT3 expressed on CHO-S cells. Put plainly: flow cytometry (iQue Screener PLUS) on CHO-S cells transiently expressing mouse FLT3; AF647 anti-human IgG (H+L) secondary; GeoMean RL1-H; 12-point titration.
Description: as §1

T1 sequence (Q00342 28-1000): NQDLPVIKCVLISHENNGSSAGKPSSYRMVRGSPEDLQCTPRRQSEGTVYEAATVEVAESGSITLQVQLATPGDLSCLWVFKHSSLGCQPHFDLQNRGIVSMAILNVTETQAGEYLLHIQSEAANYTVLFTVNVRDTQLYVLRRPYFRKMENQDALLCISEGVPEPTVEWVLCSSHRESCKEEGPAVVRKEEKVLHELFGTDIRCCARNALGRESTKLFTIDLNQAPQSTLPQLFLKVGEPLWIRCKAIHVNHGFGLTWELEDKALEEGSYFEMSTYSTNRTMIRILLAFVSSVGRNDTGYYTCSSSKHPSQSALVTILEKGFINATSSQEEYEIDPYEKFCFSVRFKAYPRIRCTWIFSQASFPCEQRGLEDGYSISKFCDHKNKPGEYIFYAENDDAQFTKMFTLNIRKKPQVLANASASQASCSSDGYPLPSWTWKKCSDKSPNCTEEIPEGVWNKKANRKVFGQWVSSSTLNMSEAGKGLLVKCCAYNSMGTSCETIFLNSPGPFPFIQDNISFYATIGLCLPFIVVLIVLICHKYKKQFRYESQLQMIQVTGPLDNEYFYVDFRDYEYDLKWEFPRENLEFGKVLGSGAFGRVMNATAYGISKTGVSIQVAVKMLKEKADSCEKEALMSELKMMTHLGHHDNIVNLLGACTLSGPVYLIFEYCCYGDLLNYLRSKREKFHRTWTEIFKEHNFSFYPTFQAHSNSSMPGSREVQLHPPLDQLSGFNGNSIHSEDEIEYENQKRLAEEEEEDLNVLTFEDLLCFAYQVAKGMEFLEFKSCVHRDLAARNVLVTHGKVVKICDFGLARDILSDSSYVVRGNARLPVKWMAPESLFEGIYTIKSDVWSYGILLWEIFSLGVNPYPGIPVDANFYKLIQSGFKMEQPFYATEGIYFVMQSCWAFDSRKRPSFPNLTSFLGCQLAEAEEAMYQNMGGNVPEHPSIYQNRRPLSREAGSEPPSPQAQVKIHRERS

B1: anti-FLT3 antibody 17526 (antibody, human IgG1, kappa, L234A L235A, V domains shown)
VH: QVTLKESGPVLVKPTETLTLTCTISGFSLGNARMGVSWIRQPPGKALEWLAHIFSNDEKSYSTSLKSRLTISKDTSKSQVVLTMTNMDPVDTATYYCARIVGYVDWLLPFDYWGQGTLVTVSS
VL: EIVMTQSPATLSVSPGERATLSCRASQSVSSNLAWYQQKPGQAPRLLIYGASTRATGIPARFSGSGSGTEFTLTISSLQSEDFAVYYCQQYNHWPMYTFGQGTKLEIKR
notes: Human IgG1-LALA / kappa
Usually EC50 (read off the curve) stands for the concentration that produces a half-maximal response. For B1, the binding result in test [1] was “no binding”; in test [2], “binds”; in test [4], “binds”. In addition, the “EC50 (read off the curve)” value in test [3] was around 0.02 µg/mL.

B2: anti-FLT3 antibody 17667 (antibody, human IgG1, kappa, L234A L235A, V domains shown)
VH: B1 VH with I24V, G30S, K59R, T63P, D74G
VL: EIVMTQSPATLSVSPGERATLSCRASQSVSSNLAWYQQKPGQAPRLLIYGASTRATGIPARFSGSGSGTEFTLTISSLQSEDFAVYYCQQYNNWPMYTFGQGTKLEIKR
notes: Human IgG1-LALA / kappa
Take B2: the binding result in test [1] was “no binding”; in test [2] it was “binds”; in test [4] it was “binds”. Moreover, the “EC50 (read off the curve)” value in test [3] was around 0.02 µg/mL.

B3: anti-FLT3 antibody 17679 (antibody, human IgG1, kappa, L234A L235A, V domains shown)
VH: QVQLQESGPGLVKPSQTLSLTCTVSGGSISSGGYYWSWIRQHPGKGLEWIGYIYYSGRTNYNPSLKSRVTISEDTSKNQFSLKVSSVTAADTAVYYCARDQDGSGWYFDYWGQGALVTVSS
VL: EIVLTQSPATLSLSPGERATLSCRASQSVSSYLAWYQQKPGQAPRLLIYDASNRATGIPARFSGSGSGTDFTLTIRSLEPEDFAVYYCQQRSNWWTFGQGTKVEIKR
notes: Human IgG1-LALA / kappa
As for B3, the binding result in test [1] was “no binding”; in test [2] it was “binds”; in test [4] it was “binds”. Further, in test [3], the “EC50 (read off the curve)” value was around 0.04 µg/mL.

B4: anti-FLT3 antibody 17566 (antibody, human IgG1, kappa, L234A L235A, V domains shown)
VH: QVTLKESGPVLVKPTETLTLTCTVSGFSFNNARMGVNWIRQPPGKALEWLAHIFSNDEKSYSTSLKSRLTISKDISKSQVVLTMTNMDPVDTATYYCARIVGYGSGWRLLGDYWGQGTLVTVSS
VL: AIQMTQSPSSLSASVGDRVTITCRASQGITNDLGWYQQKPGKAPKLLIYAASSLQSGVPSRFSGSGSGTDFTLTISSLQPEDFATYYCLQDYNYPWTFGQGTKVEIKR
notes: Human IgG1-LALA (L234A/L235A) / kappa, germline-corrected variable domains
For B4, the results for the binding result in test [1], in test [2] and in test [4] were “no binding”, “binds” and “binds”, respectively. In test [3], the “EC50 (read off the curve)” value is around 0.03 µg/mL.

B5: anti-FLT3 antibody 17543 (antibody, human IgG1, kappa, L234A L235A, V domains shown)
VH: QVTLKESGPVLVKPTETLTLTCTVSGFSLINARMGVTWIRQPPGKALEWLAHIFSNDEKSYSTSLKSRLTISKDTSKSQVVLTMTNMDPVDTATYYCARIPGYSRGWDYYYYGMDVWGQGTMVTVSS
VL: B4 VL with A1D, T30R, L46R, S53T, D70E, D91H, Y92N, N93S
notes: Human IgG1-LALA / kappa
For B5, the binding result in test [1] is recorded as “no binding”. The “EC50 (read off the curve)” value in test [2] was around 0.03 µg/mL; in test [3], around 0.04 µg/mL.

B6: anti-FLT3 antibody 17497 (antibody, human IgG1, kappa, L234A L235A, V domains shown)
VH: QVQLQESGPGLVKPSGTLSLTCAVSGGSISSTNWWSWVRQPPGKGLEWIGEISHRGSTNYNPSLKSRVTISVDKSKNQFSLKLSSVTAADTAVYYCARDPEMTLYYYYGMDVWGQGTTVTVSS
VL: B4 VL with A1D, Q27R, T30R, L46R, D70E, D91H, Y92N, N93S, W96L, Q100G
notes: Human IgG1-LALA / kappa
Turning to B6, the “EC50 (read off the curve)” value in test [5] and in test [3] was around 0.01 µg/mL throughout. The binding result in test [2] and in test [4] was “binds” in each case.
